# Experimental data: patent publication US20240294611A1
# Assays:
# [1] = target: SARS-CoV-2 B.1.1.7 (variant Alpha) spike on pseudovirus (SARS-CoV-2) (UniProt P0DTC2); test: cell-based or functional assay
# [2] = target: SARS-CoV-2 D614G spike without stabilizing modifications (on cells or pseudovirus) (SARS-CoV-2) (UniProt P0DTC2); test: cell-based or functional assay
substance,measurement,setting,value
isotype control antibody with irrelevant binding,Pseudovirus IC50,[1],> 5 µM
same,Pseudovirus IC50,[2],> 5 µM
